B1: FD-C_T282E, phosphomimic variant of the C-terminal domain of FD (amino acids 203-285) (domain or fragment)
chain: KKRGQDSNEGSGNRRHKRMIKNRESAARSRARKQAYTNELELEVAHLQAENARLKRQQDQLKMAAAIQQPKKNTLQRSSEAPF
B2: TERMINAL FLOWER 1 (TFL1) (natural protein)
chain: not shown
B3: 14-3-3n (At3g02520; GRF7) (natural protein)
chain: MSSSREENVYLAKLAEQAERYEEMVEFMEKVAKTVDTDELTVEERNLLSVAYKNVIGARRASWRIISSIEQKEESRGNDDHVSIIKDYRGKIETELSKICDGILNLLDSHLVPTASLAESKVFYLKMKGDYHRYLAEFKTGAERKEAAESTLVAYKSAQDIALADLAPTHPIRLGLALNFSVFYYEILNSPDRACSLAKQAFDEAISELDTLGEESYKDSTLIMQLLRDNLTLWNSDINDEAGGDEIKEASKHEPEEGKPAETGQ
B4: FLOWERING LOCUS T (FT) (natural protein)
chain: not shown

Assays:
[1] = biological target: B3; test: native gel or EMSA
[2] = biological target: T1, FD, full-length, phosphomimic variant T282E (Arabidopsis thaliana, UniProt Q84JK2 1-285, T282E); test: native gel or EMSA
T1 sequence: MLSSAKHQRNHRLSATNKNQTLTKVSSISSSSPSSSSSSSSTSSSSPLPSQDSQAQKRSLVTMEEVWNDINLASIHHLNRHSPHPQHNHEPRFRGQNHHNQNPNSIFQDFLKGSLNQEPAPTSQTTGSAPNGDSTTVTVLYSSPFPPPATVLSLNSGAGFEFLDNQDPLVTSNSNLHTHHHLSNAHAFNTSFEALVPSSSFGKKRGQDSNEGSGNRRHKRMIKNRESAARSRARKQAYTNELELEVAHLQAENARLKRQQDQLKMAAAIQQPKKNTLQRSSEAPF

Binder	binding result [1]	binding result [2]
B1	binds	
B2	binds	
B3		binds
B4	binds	

— doi:10.1101/483925 (bioRxiv, 2018)
